Consider three molecules from patent US20060024300A1 (published 2006).

In assay [1] the target is T1, CD20 (human, UniProt P11836 1-297).
T1 construct: whole, on cells; not clear that this entry is the whole human CD20, so it is not used; also called human CD20; CD20 antigen
T1 sequence (looked up): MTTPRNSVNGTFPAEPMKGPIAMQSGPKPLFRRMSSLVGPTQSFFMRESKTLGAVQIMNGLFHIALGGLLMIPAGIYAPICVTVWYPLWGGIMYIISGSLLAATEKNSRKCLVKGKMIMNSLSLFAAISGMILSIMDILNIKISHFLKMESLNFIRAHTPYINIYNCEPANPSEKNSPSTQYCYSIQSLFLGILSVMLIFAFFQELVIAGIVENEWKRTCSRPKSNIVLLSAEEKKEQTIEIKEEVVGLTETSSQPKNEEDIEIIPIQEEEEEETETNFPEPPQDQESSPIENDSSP
The assay is described as follows: Scatchard analysis, cold antibody against 125I-2H7.v16 on WIL2-S cells.
Experimental: All dilutions were performed in binding assay buffer (DMEM media containing 1% bovine serum albumin, 25 mM HEPES pH 7.2, and 0.01% sodium azide). […] WIL2-S cells (60,000 cells in 0.025 mL) were then added. The plate was sealed and incubated at room temperature for 24 h, then centrifuged for 15 min at 3,500 RPM. The supernatant was then aspirated and the cell pellet was washed and centrifuged. The supernatant was again aspirated, and the pellets were dissolved in 1N NaOH and transferred to tubes for gamma counting.

The target in assay [2] is T1, CD20. In words: cell-based ELISA, WIL2-S cells.
Experimental: To measure relative binding affinities to the CD20 antigen, a cell-based ELISA assay was developed. […] The cells were washed with PBS containing 1% FBS (assay buffer) and seeded at 250-300,000 cellwell in 96-well round bottom plates (Nunc, Roskilde, Denmark). […] The plates were buried in ice and incubated for 45 min. To remove the unbound antibody, 0.1 mL assay buffer were added to the wells. Plates were centrifuged and supernatants were removed. Cells were washed two more times with 0.2 mL assay buffer. Antibody bound to the plates was detected by adding peroxidase conjugated goat anti-human Fc antibody (Jackson ImmunoResearch, West Grove, Pa.) to the plates. After a 45 min incubation, cells were washed as described before. TMB substrate (3,3′,5,5′-tetramethyl benzidine; Kirkegaard & Perry Laboratories, Gaithersburg, Md.) was added to the plates. The reaction was stopped by adding 1 M phosphoric acid. Titration curves were fit with a four-parameter nonlinear regression curve-fitting program (KaleidaGraph, Synergy software, Reading, Pa.). The absorbance at the midpoint of the titration curve (mid-OD) and its corresponding concentration of the standard were determined. Then the concentration of each variant at this mid-OD was determined, and the concentration of the standard was divided by that of each variant.

B1: 2H7.v73 (antibody, IgG1)
heavy: not shown
light: DIQMTQSPSSLSASVGDRVTITCRASSSVSYLHWYQQKPGKAPKPLIYAPSNLASGVPSRFSGSGSGTDFTLTISSLQPEDFATYYCQQWSFNPPTFGQGTKVEIKRTVAAPSVFIFPPSDEQLKSGTASVVCLLNNFYPREAKVQWKVDNALQSGNSQESVTEQDSKDSTYSLSSTLTLSKADYEKHKVYACEVTHQGLSSPVTKSFNRGEC
notes: IgG1; 2H7.v16 background
Consider B1, for which binding in assay [1] was characterised by a dissociation constant (Kd) of 1.22 nM.

B2: 2H7.v75 (antibody, IgG1)
heavy: EVQLVESGGGLVQPGGSLRLSCAASGYTFTSYNMHWVRQAPGKGLEWVGAIYPGNGDTSYNQKFKGRFTISVDKSKNTLYLQMNSLRAEDTAVYYCARVVYYSASYWYFDVWGQGTLVTVSSASTKGPSVFPLAPSSKSTSGGTAALGCLVKDYFPEPVTVSWNSGALTSGVHTFPAVLQSSGLYSLSSVVTVPSSSLGTQTYICNVNHKPSNTKVDKKVEPKSCDKTHTCPPCPAPELLGGPSVFLFPPKPKDTLMISRTPEVTCVVVDVSHEDPEVKFNWYVDGVEVHNAKTKPREEQYNATYRVVSVLTVLHQDWLNGKEYKCKVSNKALPAPIAATISKAKGQPREPQVYTLPPSREEMTKNQVSLTCLVKGFYPSDIAVEWESNGQPENNYKTTPPVLDSDGSFFLYSKLTVDKSRWQQGNVFSCSVMHEALHNHYTQKSLSLSPGK
light: B1 light
notes: IgG1; 2H7.v16 background
B2: the Kd – broadly, a measure of binding affinity in units of concentration – in assay [1] is 1.09 nM.

B3: 2H7 version 166 (antibody, human IgG1, kappa, V domains shown)
VH: EVQLVESGGGLVQPGGSLRLSCAASGYTFTSYNMHWVRQAPGKGLEWVGAIYPGNGDTSYNQKFKGRFTISVDKSKNTLYLQMNSLRAEDTAVYYCARVVYYGGDWYFDVWGQGTLVTVSS
VL: DIQMTQSPSSLSASVGDRVTITCRASSSVSYMHWYQQKPGKAPKPLIYAPSNLASGVPSRFSGSGSGTDFTLTISSLQPEDFATYYCQQWSFNPPTFGQGTKVEIKR
notes: IgG1; 2H7.v16 background; Y100b is deleted (empty new residue)
With B3, the Relative binding in assay [2] is 0.99 ratio (2H7.v16 conc./variant conc.).
